Apparent Kd (screen) and Kd data for five substances are collected here from PMC3433420.

The target of one assay is SHC3 (Homo sapiens) (UniProt Q92529). As to conditions: cited from earlier work.
The target in a further assay is SYK-NC (Homo sapiens) (UniProt P43405). As to conditions: cited from earlier work.
In the next assay the target is CRKL (Homo sapiens) (UniProt P46109). As to conditions: cited from earlier work.
Assay [1] has as its target NCK2 (Homo sapiens) (UniProt O43639). As to conditions: cited from earlier work.
The target in a further assay is LCK SH2 domain (human) (UniProt P06239). Nature of the assay: peptide or protein array; SH2/PTB proteins spotted on aldehyde slides, rhodamine peptide titrated in buffer B (20 mM HEPES, 100 mM KCl, 0.1% Tween-20, 5 mM DTT, pH 7.8), 1 h at room temperature; replicate assays.
Chain of LCK SH2 domain (human) (P06239 127-224): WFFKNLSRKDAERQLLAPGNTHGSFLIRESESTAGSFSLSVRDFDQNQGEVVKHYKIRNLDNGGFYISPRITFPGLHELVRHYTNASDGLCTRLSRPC
Another assay deals with BLK SH2 domain (human) (UniProt P51451). The description is as above.
Chain of BLK SH2 domain (human) (P51451 124-220): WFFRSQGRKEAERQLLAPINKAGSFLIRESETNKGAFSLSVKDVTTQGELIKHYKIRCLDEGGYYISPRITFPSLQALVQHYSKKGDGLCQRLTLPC
The target in the next assay is BLNK SH2 domain (human) (UniProt Q8WV28). The description is as above.
Chain of BLNK SH2 domain (human) (Q8WV28 346-453): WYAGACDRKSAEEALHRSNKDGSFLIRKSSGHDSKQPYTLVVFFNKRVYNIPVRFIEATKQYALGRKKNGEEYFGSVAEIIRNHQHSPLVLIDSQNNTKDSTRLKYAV
The next assay has as its target TEC SH2 domain (human) (UniProt P42680). The assay is described as above.
A further assay concerns the target YES1 SH2 domain (human) (UniProt P07947). The assay is described as above.
In assay [2] the target is PTPN11 tandem SH2 domains (human). Described as above.
The target in another assay is HCK SH2 domain (human) (UniProt P08631). The description is as above.
Chain of HCK SH2 domain (human) (P08631 144-241): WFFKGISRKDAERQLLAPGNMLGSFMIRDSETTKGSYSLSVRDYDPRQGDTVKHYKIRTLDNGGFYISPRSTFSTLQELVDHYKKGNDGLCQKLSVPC
Assay [3] concerns the target RASA1 tandem SH2 domains (human). Described as above.
Assay [4] deals with SH3BP2 SH2 domain (human) (UniProt P78314). Described as above.
Chain of SH3BP2 SH2 domain (human) (P78314 457-555): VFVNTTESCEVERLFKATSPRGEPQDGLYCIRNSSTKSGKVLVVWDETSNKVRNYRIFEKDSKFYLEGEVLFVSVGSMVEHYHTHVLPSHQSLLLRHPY
For another assay, the target named is SH2D1B (Homo sapiens) (UniProt O14796). To be noted: cited from earlier work.
Chain of SH2D1B (Homo sapiens) (O14796 1-106): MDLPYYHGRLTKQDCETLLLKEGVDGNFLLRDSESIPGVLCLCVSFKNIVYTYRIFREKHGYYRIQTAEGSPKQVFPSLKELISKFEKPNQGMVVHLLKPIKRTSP
A further assay concerns the target SHC1-PTB (Homo sapiens) (UniProt P29353). As to conditions: cited from earlier work.
The target of assay [5] is PLCG2-NC (Homo sapiens) (UniProt P16885). As to conditions: cited from earlier work.
Chain of PLCG2-NC (Homo sapiens) (P16885 527-740): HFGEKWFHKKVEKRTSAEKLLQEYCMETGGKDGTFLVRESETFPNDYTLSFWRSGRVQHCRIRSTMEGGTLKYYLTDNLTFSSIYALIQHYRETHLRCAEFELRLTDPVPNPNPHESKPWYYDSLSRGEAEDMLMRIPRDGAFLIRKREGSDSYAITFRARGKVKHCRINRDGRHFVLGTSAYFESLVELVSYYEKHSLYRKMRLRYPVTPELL
A further assay addresses SH2B2 (Homo sapiens) (UniProt O14492). As to conditions: cited from earlier work.
The target in assay [6] is VAV2 (Homo sapiens) (UniProt P52735). As to conditions: cited from earlier work.
Chain of VAV2 (Homo sapiens) (P52735 668-772): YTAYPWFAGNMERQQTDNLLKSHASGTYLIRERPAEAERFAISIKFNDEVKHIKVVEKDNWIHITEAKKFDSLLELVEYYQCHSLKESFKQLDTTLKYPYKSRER
For a further assay, the target named is GRB7 (Homo sapiens) (UniProt Q14451). As to conditions: cited from earlier work.
Chain of GRB7 (Homo sapiens) (Q14451 426-532): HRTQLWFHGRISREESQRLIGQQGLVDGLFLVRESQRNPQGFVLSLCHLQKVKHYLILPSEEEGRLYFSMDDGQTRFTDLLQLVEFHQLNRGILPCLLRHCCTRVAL
The target in the next assay is SHC2-PTB (Homo sapiens) (UniProt P98077). As to conditions: cited from earlier work.
Chain of SHC2-PTB (Homo sapiens) (P98077 482-582): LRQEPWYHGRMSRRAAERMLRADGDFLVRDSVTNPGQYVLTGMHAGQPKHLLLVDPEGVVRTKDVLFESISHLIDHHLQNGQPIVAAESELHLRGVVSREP
Assay [7] deals with NCK2 (Homo sapiens) (UniProt O43639). As to conditions: cited from earlier work. The source holds these as a separate data set.
Chain of NCK2 (Homo sapiens) (O43639 280-380): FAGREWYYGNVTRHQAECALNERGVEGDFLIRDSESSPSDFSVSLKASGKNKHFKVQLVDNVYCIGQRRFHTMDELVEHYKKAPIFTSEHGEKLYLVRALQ
The target in a further assay is VAV3 (Homo sapiens) (UniProt Q9UKW4). As to conditions: cited from earlier work.
Chain of VAV3 (Homo sapiens) (Q9UKW4 667-771): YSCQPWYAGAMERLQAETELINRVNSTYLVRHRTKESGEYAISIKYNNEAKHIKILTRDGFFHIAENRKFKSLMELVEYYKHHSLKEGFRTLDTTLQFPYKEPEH
In a further assay the target is PIK3R3-NC (Homo sapiens) (UniProt Q92569). As to conditions: cited from earlier work.
Assay [8] has as its target PLCG2-NC (Homo sapiens) (UniProt P16885). As to conditions: cited from earlier work. The source holds these as a separate data set.
In a further assay the target is PIK3R1-NC (Homo sapiens) (UniProt P27986). To be noted: cited from earlier work.
Chain of PIK3R1-NC (Homo sapiens) (P27986 328-723): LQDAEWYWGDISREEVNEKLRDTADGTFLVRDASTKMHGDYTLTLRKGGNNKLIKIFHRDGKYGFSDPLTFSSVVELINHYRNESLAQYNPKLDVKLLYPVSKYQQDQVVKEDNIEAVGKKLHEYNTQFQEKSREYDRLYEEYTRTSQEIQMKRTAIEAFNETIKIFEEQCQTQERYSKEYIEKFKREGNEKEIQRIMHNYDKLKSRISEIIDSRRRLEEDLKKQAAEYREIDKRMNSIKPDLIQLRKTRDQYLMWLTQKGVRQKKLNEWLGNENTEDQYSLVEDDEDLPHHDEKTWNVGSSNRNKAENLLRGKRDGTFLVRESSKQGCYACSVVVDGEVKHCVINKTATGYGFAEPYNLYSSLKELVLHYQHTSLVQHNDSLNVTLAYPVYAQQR
Assay [9] addresses VAV2 (Homo sapiens) (UniProt P52735). To be noted: cited from earlier work. This is another data set of the same source.

Several values for one entry are separate records, joined by “and”; a condition that tells them apart may be missing. Equal values may be shown once. Read-outs that look alike come from different tables or passages of the source.

Chain of YES1 SH2 domain (human) (P07947 158-255): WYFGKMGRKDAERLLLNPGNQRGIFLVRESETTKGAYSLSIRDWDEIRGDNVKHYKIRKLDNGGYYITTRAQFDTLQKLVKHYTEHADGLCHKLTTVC
Chain of TEC SH2 domain (human) (P42680 247-345): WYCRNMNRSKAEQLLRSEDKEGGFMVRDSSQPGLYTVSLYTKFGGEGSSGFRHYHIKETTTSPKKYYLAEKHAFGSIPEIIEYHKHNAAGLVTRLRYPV
Chain of SHC1-PTB (Homo sapiens) (P29353 483-583): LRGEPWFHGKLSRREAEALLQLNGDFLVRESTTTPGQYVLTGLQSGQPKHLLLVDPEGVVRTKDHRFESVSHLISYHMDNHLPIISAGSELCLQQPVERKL
Chain of SH2B2 (Homo sapiens) (O14492 412-520): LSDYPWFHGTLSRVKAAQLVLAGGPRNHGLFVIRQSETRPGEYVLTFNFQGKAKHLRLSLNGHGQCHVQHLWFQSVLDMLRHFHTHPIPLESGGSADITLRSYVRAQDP
Chain of CRKL (Homo sapiens) (P46109 9-107): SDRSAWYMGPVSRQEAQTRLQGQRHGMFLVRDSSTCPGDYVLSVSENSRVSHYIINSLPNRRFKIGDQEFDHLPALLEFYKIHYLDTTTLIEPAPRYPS
Chain of SHC3 (Homo sapiens) (Q92529 494-594): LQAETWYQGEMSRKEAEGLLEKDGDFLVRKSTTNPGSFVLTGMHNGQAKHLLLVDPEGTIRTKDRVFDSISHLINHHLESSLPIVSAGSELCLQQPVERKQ

Regarding …pYEEMRAFQ, the apparent Kd (screen) was 123 nM with SHC3 (Homo sapiens), 1100 nM with SYK-NC (Homo sapiens), 1250 nM with CRKL (Homo sapiens) and 1370 nM in the assay with NCK2 (Homo sapiens) [1].
On to “ErbB4 pY1262 phosphopeptide, rhodamine-labelled, for protein microarrays”, for which the Kd (commonly the free concentration of one partner at which half of the binding sites on the other are occupied at equilibrium, for simple one-to-one binding) with LCK SH2 domain (human) is 214 nM and 375 nM; with BLK SH2 domain (human), 170 nM and 540 nM; with BLNK SH2 domain (human) it was 1640 nM; with TEC SH2 domain (human) it was 407 nM and 1190 nM; in the assay with YES1 SH2 domain (human) it was 111 nM and 329 nM; in [2], 536 nM. Further, the Kd with HCK SH2 domain (human) is 827 nM; in assay [3], 318 nM; in [4], 403 nM and 1470 nM.
Regarding …pYWDQDPPE, the apparent Kd (screen) with SH2D1B (Homo sapiens) was 2000 nM; with SHC1-PTB (Homo sapiens), 88 nM; with PLCG2-NC (Homo sapiens) [5], 2000 nM; with SH2B2 (Homo sapiens), 1470 nM.
As to …pYLVPQQGF, the apparent Kd (screen) with VAV2 (Homo sapiens) [6], in the assay with GRB7 (Homo sapiens), with SHC2-PTB (Homo sapiens), with NCK2 (Homo sapiens) [7] and in the assay with VAV3 (Homo sapiens) was 2000 nM each time.
Take …pYLIPQQGFd: the apparent Kd (screen) is 204 nM in the assay with PIK3R3-NC (Homo sapiens), 2000 nM in the assay with PLCG2-NC (Homo sapiens) [8], 295 nM in the assay with PIK3R1-NC (Homo sapiens) and 85 nM in the assay with VAV2 (Homo sapiens) [9].
